From article PMC5509671
Each block holds one substance with its values, some of them ahead of it.

Legend:
[1] = molecular target: full length human Bax S4C, C62S, C126S, labelled (human) (UniProt Q07812); assay: scanning FCCS in giant unilamellar vesicles; membrane-embedded proteins in GUVs (30% CL or MOM mix), 22 °C; membrane insertion with cBid (labelled cBid as partner, or unlabeled cBid as activator; for Bax with Bcl-xL: cBid, Bax and GUVs incubated 30 min before Bcl-xL was added); mean CC above 20% indicates interaction
UniProt Q07812, sequence (Q07812 whole entry S4C/C62S/C126S): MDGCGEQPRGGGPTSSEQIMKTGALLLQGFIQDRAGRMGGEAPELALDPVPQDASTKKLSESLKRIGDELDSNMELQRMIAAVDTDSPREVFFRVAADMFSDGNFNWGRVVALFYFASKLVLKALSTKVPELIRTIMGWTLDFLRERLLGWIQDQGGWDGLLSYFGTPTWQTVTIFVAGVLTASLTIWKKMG

[2] = molecular target: full length human Bcl-xL S4C, C151A, labelled (human) (UniProt Q07817); assay: FCCS kinetics in solution fitted with an ODE model; Bcl-xLR and Bcl-xLG mixed and incubated 2 h at RT, then 400 nM unlabeled cBid (~10-fold excess) or buffer added at t = 0; CC followed over time; rate constants from the ODE model of scenario 2 with likelihood profiles (95% confidence)
UniProt Q07817, sequence (Q07817 whole entry S4C/C151A): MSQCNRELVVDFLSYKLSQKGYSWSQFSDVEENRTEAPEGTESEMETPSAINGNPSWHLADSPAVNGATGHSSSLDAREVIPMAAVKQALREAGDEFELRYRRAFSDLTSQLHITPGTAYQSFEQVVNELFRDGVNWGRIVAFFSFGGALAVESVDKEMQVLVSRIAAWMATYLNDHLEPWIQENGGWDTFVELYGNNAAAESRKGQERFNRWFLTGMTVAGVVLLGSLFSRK

[3] = molecular target: full length human Bcl-xL S4C, C151A, labelled (human) (UniProt Q07817); assay: scanning FCCS in giant unilamellar vesicles; membrane-embedded proteins in GUVs (30% CL or MOM mix), 22 °C; membrane insertion with cBid (labelled cBid as partner, or unlabeled cBid as activator; for Bax with Bcl-xL: cBid, Bax and GUVs incubated 30 min before Bcl-xL was added); mean CC above 20% indicates interaction
[4] = molecular target: full length human Bcl-xL S4C, C151A, labelled (human) (UniProt Q07817); assay: fluorescence cross-correlation spectroscopy (FCCS) in solution; both partners free in solution, one with a green and one with a red dye; 150 mM NaCl, 20 mM Tris, pH 7.5; incubated at least 30 min (1 h for the cBidG titration); protein concentrations up to 200 nM; CC above 2.8% indicates interaction

- %CC (highest, in single GUVs) [1]: < 100 % CC
Substance: full length human Bax S4C, C62S, C126S, labelled (from UniProt Q07812 1-192) (natural protein)

- k+3 (cBid with a Bcl-xL homo-dimer, giving a cBid/Bcl-xL hetero-dimer and a Bcl-xL monomer) [2]: 10 to 700 M⁻¹ s⁻¹
Substance: cBid (caspase 8-cleaved full length mouse Bid), unlabeled (complex)

- %CC [1]: < 40 % CC
- %CC [3]: > 60 % CC
- %CC [4]: < 40 % CC
Substance: cBid (caspase 8-cleaved full length mouse Bid) labelled at the C-terminal fragment (complex)
